The target of the assay is group I phospholipase A2. The assay is described as follows: 125I-PLA2-I binding in COS7 culture supernatant, polyethylene glycol coprecipitation.

B1: secretion type PLA2-I receptor protein (receptor)
chain: ETAAWAVTPERLREWQDKGIFIIQSENLEKCIQASKSTLTLENCKPPNKYMLWKWVSNHRLFNIGGSGCLGLNVSSPEQPLSIYECDSTHVSLKWHCNKKTITGPLQYLVQVKQDNTLVASRKYLHKWVSYMSGGGGICDYLHKDLYTIKGNAHGTPCMFPFQYNQQWHHECTREGREDNLLWCATTSRYERDEKWGFCPDPTSTEVGCDAVWEKDLHSRICYQFNLLSSLSWSEAHSSCQMQGAALLSIADETEENFVRKHLGSEAVEVWMGLNQLDEDAGWQWSDRTPLNYLNWKPEINFEPFVEYHCGTFNAFMPKAWKSRDCESTLPYVCKKYLNPTDHGVVEKDAWKYYATHCEPGWNPHNRNCYKLQKEKKTWNEALQSCQSNNSVLTDITSLAEVEFLVTLLGDENASETWIGLSSHKIPVSFEWSNGSSVTFTNWHTLEPHIFPNRSQLCVSAEQSEGHWKVKNCEETLFYLCKKTGLVLSDTESGCQKGWERHGKFCYKIDTVLRSFDHASSGYYCPPALITITSRFEQAFITSLISSVVKTKDTYFWIALQDQNNTGEYTWKTAGQQLEPVKYTHWNTRQPRYSGGCVVMRGRSHPGRWEVRDCRHFKAMSLCKQPVENREKTKQEEGWPFHPCYLDWESEPGLASCFKVFHSEKVLMKRTWRQAEEFCEEFGAHLASFAHIEEENFVNELLHSKFNRTEERQFWIGFNKRNPLNAGSWEWSDGTPVVSSFLDNSYFGEDARNCAVYKANKTLLPSYCGSKREWICKIPRDVRPKVPPWYQYDAPWLFYQDAEYLFHISASEWSSFEFVCGWLRSDILTIHSAHEQEFIHSKIRALSKYGVNWWIGLREERASDEFRWRDGSPVIYQNWDKGKERSMGLNESQRCGFISSITGLWASEECSISMPSICKRKKVWVIEKKKDIPKQHGTCPKGWLYFDYKCLLLKIPEGPSDWKNWTSAQDFCVEEGGTLVAIENEVEQAFITMNLFGHTTNVWIGLQDDDYEKWLNGRPVSYSNWSPFDTKNIPNHNTTEVQKRIPLCGLLSNNPNFHFTGKWYFEDCREGYGFVCEKMQDASGHSINTSDMYPIPNTLEYGNRTYKIINANMTWYTALKTCLMHGAELASITDQYHQSFLTVILNRVGYAHWIGLFTEDNGLSFDWSDGTKSSFTFWKDDESSFLGDCVFADTSGRWSSTACESYLQGAICQVPTETRLSGRLELCSETSIPWIKFKSNCYSFSTVLESTSFEAAHEFCKKKGSNLLTIKDEAENSFLLEELLAFRSSVQMIWLNAQFDGDNETIKWFDGTPTDQSNWGIRKPEVYHFKPHLCVALRIPEGVWQLSSCQDKKGFICKMEADIHTVKKHPGK
As usually defined, the Kd is the concentration at which binding is half-saturated. Read a low Kd as tighter binding. In turn, B1 registered an equilibrium dissociation constant (Kd) of 0.8 nM.

These data come from patent US5612190.
